Kd data for 16 molecules are collected here from publication PMC11147780, “Vaccination induces broadly neutralizing antibody precursors to HIV gp41” (Nature Immunology, 2024).

As a reminder, the Kd is a measure of binding affinity in units of concentration. Read a high Kd as weaker binding.

T1: 10E8-GT10.1 epitope scaffold (synthetic construct, circularly …, N-linked glycosylation sites added (positions not given))
T1 chain: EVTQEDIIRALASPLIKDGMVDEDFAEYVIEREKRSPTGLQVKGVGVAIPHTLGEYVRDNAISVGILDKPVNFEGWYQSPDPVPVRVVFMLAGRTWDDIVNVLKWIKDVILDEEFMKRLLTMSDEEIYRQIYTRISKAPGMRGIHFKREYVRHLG

T2: 10E8-GT10.2 epitope scaffold (designed scaffold 10E8-GT10.2 with …, N-linked glycosylation sites added (positions not given))
T2 chain: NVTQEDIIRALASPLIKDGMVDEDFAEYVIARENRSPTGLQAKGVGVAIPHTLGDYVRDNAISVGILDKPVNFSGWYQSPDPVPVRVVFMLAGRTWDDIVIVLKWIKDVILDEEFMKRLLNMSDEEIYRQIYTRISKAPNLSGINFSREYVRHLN

B1: MPER-071 (antibody, V domains shown)
VH: QVQLVQSGAEVKKPGASVKVSCKASGYTFTSYDINWVRQATGQGLEWMGWMNPNSGNTGYAQKFQGRVTMTRNTSISTAYMELSSLRSEDTAVYYCARGITYYDFWSGYYPTPYYFDYWGQGTLVTVSS
VL: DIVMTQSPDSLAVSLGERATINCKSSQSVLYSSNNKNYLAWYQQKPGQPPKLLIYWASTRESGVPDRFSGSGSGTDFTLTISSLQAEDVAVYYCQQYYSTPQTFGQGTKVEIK
B2: MPER-053 (antibody, V domains shown)
VH: EVQLVESGGGLVQPGRSLRLSCTASGFTFGDYAMSWFRQAPGKGLEWVGFIRSKAYGGTTEYAASVKGRFTISRDDSKSIAYLQMNSLKTEDTAVYYCTREGAYYDFWSGYLTKVYGMDVWGQGTTVTVSS
VL: not shown
B3: MPER-055 (antibody, V domains shown)
VH: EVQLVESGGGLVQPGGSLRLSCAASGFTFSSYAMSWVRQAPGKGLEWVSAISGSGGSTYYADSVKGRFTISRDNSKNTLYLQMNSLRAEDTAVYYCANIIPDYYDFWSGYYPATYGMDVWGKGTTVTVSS
VL: DIQMTQSPSSLSASVGDRVTITCRASQGIRNDLGWYQQKPGKAPKRLIYAASSLQSGVPSRFSGSGSGTEFTLTISSLQPEDFATYYCLQHNSYPLSFGGGTKVEIK
B4: NHP-Comp_MPER-GT10v55_W21-08 (antibody, V domains shown)
VH: EVQLVESGGGLVQPGGSLRLSCAASGFTFSHYGLHWVRQAPGKGLEWVAVIWSDGNKKYYADSVKDRFTISRDNSKNMLYLQMNNLKLEDTAVYYCATYTYGDWGQGVLVTVSS
VL: SYELTQPPSVSVSPGQMARITCGGDNLGSKYVHWYQQKPPQAPVLVIYDDSERPSGIPERFSGSKSGNTATLTISGVEAGDEADYYCQVWDSSSDNWVFGGGTRLTV
B5: NHP-Comp_MPER-GT10v55_W26-08 (antibody, V domains shown)
VH: QVTLKESGPALVKPTQTLTLTCTFSGFSISTTGTGVGWIRQPPGKALEWLATISWNDSKYYSTSLKSRLTISKDTSKNQVVLTFTNMDPVDTATYSCARVLQPTITTTNRFDVWGPGVLVTVSS
VL: SYDLTQPPSVSVSPGQTARITCGGDNIGSKYVHWYQQKPPQAPVLVIYYDTERPSGIPERFSGSKSGNTATLTISGVEAGDEADYYCQVWDSSSDHNVFGSGTKLTV
B6: NHP-Comp_MPER-GT10v55_W26-10 (antibody, V domains shown)
VH: EVQLVESGGGLAKPGGSLRLSCVASGFRFSNYWMNWVRQTPGKGLEWISVINSGGVITYYADSVKGRFTISRDNSKNTLSLQMNSLRTEDTAVYYCARQSLDWGLDSWGQGVVVTVSS
VL: SSELTQDPAVSVALGQTVRITCQGDSLRNHYASWYQQKPGQAPVLVVYGNNNRPSGIPERFSGSRSGNTASLTITGAQVEDEADYYCDSWDSSGTHRVFGGGTRLTV
B7: NHP-Comp_MPER-GT10v55_W21-01 (antibody, V domains shown)
VH: QVQLQESGPGLVKPSETLSLTCAVSGGSFSSYWWGWIRQPPGKGLEWIGSIYGSSGSTEYNPSLKSRATISRDTSKNQFSLKLSSVTAADTAVYYCARVKAPEIFGVVITGYYFDYWGQGVLVTVSS
VL: SYELTQPLSVSVALGQMARITCGGNNIGRKYVYWYQQKPDQAPVLVIYEDSKRPSGIPERFAGSNSGNTATLTIDGAQARDEADYYCQVWDSSTAYIFGAGTRLTV
B8: NHP-Comp_MPER-GT10v55_W26-04 (antibody, V domains shown)
VH: QVQLQESGPGVVKPSETLSLTCAVSGDSISDSYWWSWIRQPPGKGLEWIGYIYGSSTNTNYNPSLKSRVTISKDTSKNQFSLKLSSVTAADTAVYYCARESRWLEEYPLNTFDYWGQGVLVTVSS
VL: DIVMTQTPLSLPVTPGEPASISCRSSQSLLDSYGYIHLHWYLQKPGQSPQLLIYLGSNRASGVPDRFSGSGSGTDFTLKISRVEAEDVGVYYCMQTLQTPRTFGQGTKVEIK
B9: NHP-Comp_MPER-GT10v55_W21-04 (antibody, V domains shown)
VH: DVQLVESGGGLVKPGGSLRLSCVASDFTFSSYEMHWVRQAPGKGLEWVSLISESGDTTYYADSVKGRFTISRDNAKNSLFLQMNSLRAEDTAVYYCTRAITVFGVVITHFDYWGQGVLVPVSS
VL: QSALTQPPSVSKSLGQSVTISCTGTSSDIGGYYAVSWYQQHSGTAPRLLIYEVSKRPSGVSDRFSGSKSGNTASLTISGLQAEDEADYYCGSFRTGYTYIFGAGTRLTV
B10: NHP-Comp_MPER-GT10v55_W26-06 (antibody, V domains shown)
VH: QVQLVQSGAEVKQPGASVKVSCLASGYTFTSYSIHWLRQAHGQRLEWMGWINTATGNPTYTQGFKERFTFSMDTSITTAYLQISSLKTEDTAVYYCARLYRDFWGGYYASSLDVWGRGVLVTVSS
VL: SYDLTQPPSVSVSPGQTARITCGGENIGSEPVHWYQQKPPQAPLQVIYSDSERPSGIPERFSGSKSGNTATLTISGVEAGDEADYYCQVWDISSDHPYIFGAGTRLTV
B11: NHP-Comp_MPER-GT10v55_W21-03 (antibody, V domains shown)
VH: QMQLQESGPGLVKPSETLPLTCAVSGASISSNFWSWIRQAPGMGLEWIGRIYGNGGSTDYNPSLKSRVTISIDTSKNQFSLKLSSVTAADTAVYFCASSFLFRFDVWGPGVLVTVSS
VL: QSVLTQPPSASGAPGQSVTISCSGSSSNIGGNHVYWYQQLPGTAPKLLIYYSNQRPSGVPDRFSGSKSGTSASLAITGLRSEDEADYYCAAWDDSLSSYIFGAGTRLTV
B12: NHP-Comp_MPER-GT10v55_W21-02 (antibody, V domains shown)
VH: QVQLQESGPAVVKPSETLSLTCAVSGGSISSNNWWSWIRQSPGKGLEWIGGLYGSGGNTEYYPSLKSRVTISVDTSKNQFSLKLSSVTAADTAVYYCASPAPYYGRGYSFDAFDFWGQGLRVTVSS
VL: QSALTQPPSVSKSLGQSVTISCTGTSSDIGGYNGVSWYQQHSGTAPKLLIYDVNKRPSGVSDRFSGSKSGNTASLTISGLQAEDEADYYCCSYRGGSTYWVFGGGTRLTV
B13: NHP-Comp_MPER-GT10v55_W26-11 (antibody, V domains shown)
VH: EVQLVESGGGLAKPGGSLRLSCAASGFTFSNYWMCWVRQAPGKGLEWISVINSVTSGTYYADSVKGRFTISRENAKNTLYLQMDRLRVEDTAVYYCAWGLGLTAPPVYWGQGVLVTVSS
VL: ETVVTQEPSLSVSPGGTVTLTCGLSSGSVSTSNYPSWYQQTPGQAPRTLVYRTNIRPSGVPDRFSGSILGNKAALTITGAQADDESDFYCLFYMGSGIWVFGGGTRLTV
B14: NHP-10E8_MPER-GT10v55_W21-18 (antibody, V domains shown)
VH: QLQLQESGPGLVKPSETLSLTCAVSGGSISSSYWSWIRQAPGKGLEWIGYIYGSGSSTNYNPSLKSRVTLSVDTSKNQLSLKLSSVTAADTAVYYCARDVKDYNFWSGYYEDGYFDYWGQGVLVTVSS
VL: DIVMTQTPLSLPVTPGEPASISCRSSQSLLHSNGNTYLHWYLQKPGQSPRLLIYKVTNRESGVPDRFSGSGSGTDFTLKISRVEPEDVGVYYCMQSTKDPYSFGQGTKVEIK
B15: NHP-Comp_MPER-GT10v55_W21-07 (antibody, V domains shown)
VH: EVQLVESGGGLAKPGGSLRLSCAASGFTFSSYWMNWVRQTPGKGLEWISAINSGGGSTYYADSVKGRFTISRDNSKNTLSLQMNSLRAEDTAVYYCAKGYGLDSWGQGVVVTVSS
VL: QAAPTQPPSVSGSPGQSVTISCTGTSSDIGYYNAVSWYQQHPGKAPKLMIYEVSKRPSGVSDRFSGSKSGNTASLTISGLQAEDEADYYCSSYAGSNTFIFGAGTRLTV
B16: NHP-Comp_MPER-GT10v55_W26-02 (antibody, V domains shown)
VH: QLQLQESGPGLVKPSETLSVTCAVSGGSISGGYGWSWIRQPPGKGLEWIGHIFDSFGNTYYNPSLKSRVTISTDTSKNQFSLKLSSVTAADTAVYYCARETVLGAGDYFDSWGQGVLVTVSS
VL: DIQMTQSPSSLSASVGDTVTITCRASQDINNYLAWYQQKPGKAPKPLIYHASYLESGVPSRFSGSGSGTDFTLTISSLQPEDFAIYYCQQHNAYPFTFGPGTKLDIK

The target of the first experiment is T1, 10E8-GT10.1 epitope scaffold.
Turning to B1, binding was characterised by a dissociation constant (Kd) of 6400 nM. Same read-out and setting: the figure for B2 is 11000 nM; for B3 it is 16000 nM.

A further experiment addresses T2, 10E8-GT10.2 epitope scaffold.
On to B4, for which the Kd stood at 15.1 nM. On the same count and under the same terms, the value for B5 was 2.18 nM; that for B6 was 74.6 nM. Same read-out and setting: the value for B2 was 7900 nM; that for B3 was 22000 nM; that for B7 was 2630 nM. The same measure, in the same setting: the value for B8 was 20.8 nM; that for B9 was 15.6 nM. With B10, binding was put at a Kd of 0.112 nM.

As for B11, the Kd is 10.8 nM. The molecule B12 displayed a Kd of 6840 nM. Still for that read-out and setting: the value for B13 was 12.8 nM; that for B14 was 6000 nM.

The molecule B15 gave a Kd of 5510 nM. Same read-out and setting: the figure for B16 is 3.18 nM.
